According to CN110294802A (INST MILITARY MEDICINE ACADEMY MILITARY SCIENCES PLA, dated 2019):

Experiments:
[1] = molecular target: HAdV7病毒原液 (human/CHN/GZ6965/2001); test: cell-based or functional assay
合成的口蹄疫病毒多肽抗原 = test: ELISA, antigen coated on plate, anti-human IgG-HRP detection

B1: 10G12抗体 (antibody, V domains shown)
VH: QVQLKQPGAELVRPGASVKLSCKASGYSFTNYWMHWMKQRPGQGLEWIGMIDPSDSETRLNQKFKDKATLTVDKSSSIAYMQLSSPTSEDSAVYYCARDRYDGGAWFDYWSQGTLVT
VL: DIVMTQTPLSLPVSLGDQASISCRSSQSLVHSNGNTYLHWYLQKPGQSPKLLIYKVSNRFSGVPDRFSVSGSGTDFTLKISRVEAEDLGVYFCSQSTHVPPTFGGGTKLEIK
notes: also called 单克隆抗体10G12
B1 was tested, and the “抗体对腺病毒感染的抑制率 (EC50, CPE on A549 cells)” value [1] was 0.2 µg/mL and the binding result (合成的口蹄疫病毒多肽抗原) was “no binding (tested: 300μg/ml)”.
